Measured values: patent US8993741B2, “SMNdelta7 degron: novel compositions and methods of use” (The Trustees of the University of Pennsylvania, priority 2009, dated 2015)

Legend:
293T cells [1] = experiment: Protein stability assay: luciferase activity of Luc-fused constructs after CHX treatment; format: cell-based; conditions: Luc fusion in 293T cells, CHX 0.1 mg/ml, up to 10 hours
Text: To construct plasmids expressing Luc-fused proteins, the luciferase gene was cloned into pcDNA3.1 vector at HindIII/KpnI sites, then DNA fragments encoding full-length wild type human SMN, SMNΔ7, several deletion mutants of SMNΔ7, and optiPEST were inserted into the KpnI/XhoI sites. SMNΔ7 mutants with single amino acid change were generated by mutating residues in YG+EMLA to alanine by Quickchange site-directed mutagenesis kit (Stratagene).
Cells (293T cells) were transfected with plasmids expressing various constructs including Luc-SMN, Luc-SMNΔ7, GFP-YG+EMLA or GFP-NS. Forty-eight hours after transfection, the cells were treated with CHX (0.1 mg/ml) for various times as indicated and then assayed for luciferase activity. Luciferase activity at each time point was calculated by comparison to those at time 0, which was set to 100%. Luciferase activities were measured using One-Glo reagent (Promega).
A reporter system that recapitulates the differential stability of full-length SMN and SMNΔ7 and allows quantitative assessment of SMNΔ7's instability determinants was developed. […] Forty-eight hours after transfection, cells were treated with the protein synthesis inhibitor cycloheximide (CHX), and luciferase activity was measured at time intervals of up to 10 hours. […]

293T cells [2] = experiment: Level of HA-tagged SMN proteins, Western blot with anti-HA antibody; format: cell-based; conditions: without MG132 treatment
Method: FIG. 3, comprising FIG. 3A through FIG. 3D, is a series of images depicting the importance of residue S270 for the activity of the SMNΔ7-DEG through YG+EMLA. FIG. 3A is a schematic illustration depicting seven residues in the YG box that were each mutated to alanine, as indicated. […] depicts the results of Western blot analyses using an anti-HA tag antibody directed against HA-tagged SMN, SMNΔ7, and SMNΔ7^S270A expressed in 293T cells treated with DMSO or 10 μM MG132 (MG) for 16 hours. Fusion proteins were monitored by, and Magoh was used as a control. FIG. 3C is a graph depicting the quantification of HA-tagged proteins depicted in FIG. 3B and compared to HA-SMN without MG132 treatment. Protein amount (%) for SMNΔ7, and SMNΔ7^S270A are calculated relative to HA-SMN not treated with MG132, that is arbitrarily set to 100%. The fold change of each fusion protein amount upon MG132 treatment is indicated in red above the column. […]
To identify specific residues in the SMN07-DEG that are important for its activity, mutagenesis of the YG box was performed wherein every second residue was converted to alanine in the context of full-length SMNΔ7 and determined the half-life of each in 293T cells. […] The levels of the tagged SMN proteins were then monitored by Western blots using anti-HA antibody (FIG. 3B).

S5 cells = experiment: Rescue of S5 cell viability after tetracycline depletion of SMN; format: cell-based, chicken; conditions: retroviral expression, one week after tetracycline (1 μg/ml)
Method: FIG. 4, comprising FIG. 4A through FIG. 4D, is a series of images depicting the functionality of SMNΔ7^S270A in snRNP assembly and its ability to rescue SMN-deficient cells. FIG. 4 A is a series of panels depicting S5 cells cultured in the presence of tetracycline (1 μg/ml) to deplete endogenous SMN and infected with retroviruses expressing SMN, SMNΔ7, or SMNΔ7^S270A. FIG. 4B is a graph depicting cell growth as in FIG. 4A measured by monitoring the number of live cells at the indicated time points following tetracycline addition. FIG. 4C depicts the results of Western blot analyses of SMN protein in rescued cells (10 days after tetracycline addition). FIG. 4D is a graph depicting SMN complex activity (%) as measured by in vitro snRNP assembly on U4 snRNA in cytoplasmic extracts from rescued cells, using U4ΔSm RNA as a control.
S5 cells were maintained and infected with retroviruses expressing SMN, SMNΔ7, and SMNΔ7^S270A as described (Wang et al., 2001, J. Biol. Chem. 276:9599).
To determine whether SMNΔ7^S270A is a functional SMN protein, a previously established cell system, the S5 cell line, was used to investigate if SMNΔ7^S270A could rescue the viability of SMN-depleted cells. […]

B1: SMNΔ7: SMN protein from exon 7 skipping, lacks C-terminal 16 amino acids and acquires EMLA (protein, listed as Homo sapiens)
chain: MAMSSGGSGGGVPEQEDSVLFRRGTGQSDDSDIWDDTALIKAYDKAVASFKHALKNGDICETSGKPKTTPKRKPAKKNKSQKKNTAASLQQWKVGDKCSAIWSEDGCIYPATIASIDFKRETCVVVYTGYGNREEQNLSDLLSPICEVANNIEQNAQENENESQVSTDESENSRSPGNKSDNIKPKSAPWNSFLPPPPPMPGPRLGPGKPGLKFNGPPPPPPPPPPHLLSCWLPPFPSGPPIIPPPPPICPDSLDDADALGSMLISWYMSGYHTGYYMEMLA
half-life (t1/2) (293T cells [1]): ~3 h
amount of HA-tagged protein (293T cells [2]): much lower than that of SMN
rescue of viability of SMN-depleted S5 cells (S5 cells): did not
